Measured values reported in patent US20250019439A1 (Adimab, published 2025).

B1: ADI-34137 (antibody, V domains shown)
VH: QVQLVQSGAEVKKPGSSVKVSCKASGGTFSSYAISWVRQAPGQGLEWMGGIIPIFGTANYAQKFQGRVTITADESTSTAYMELSSLRSEDTAVYYCARGAPNYYGSGGYDDGWFDPWGQGTLVTVSS
VL: EIVLTQSPGTLSLSPGERATLSCRASQSVSSSYLAWYQQKPGQAPRLLIYGASSRATGIPDRFSGSGSGTDFTLTISRLEPEDFAVYYCQQFGRFPTFGGGTKVEIK
notes: anti-ID IgG
B2: ADI-34132 (antibody, V domains shown)
VH: B1 VH
VL: DIQLTQSPSSLSASVGDRVTITCRASQSISSYLNWYQQKPGKAPKLLIYAASNLQSGVPSRFSGSGSGTDFTLTISSLQPEDFATYYCQQTLHTPITFGGGTKVEIK
notes: anti-ID IgG
B3: ADI-34139 (antibody, V domains shown)
VH: EVQLLESGGGLVQPGGSLRLSCAASGFTFSSYAMSWVRQAPGKGLEWVSTISGSGGSTYYADSVKGRFTISRDNSKNTLYLQMNSLRAEDTAVYYCARLGGRRGSGSSYYYYYGMDVWGQGTTVTVSS
VL: not shown
notes: anti-ID IgG
B4: ADI-34140 (antibody, V domains shown)
VH: B3 VH
VL: not shown
notes: anti-ID IgG

Experiments:
[1] = target: T1, ADI-22523 Fab; assay: BLI; tip anti-ID IgG, solution ADI-22523 Fab
T1 construct: anti-CD3 Fab by papain digestion of the IgG
T1 sequence (VH, as listed by the source limits assumed, chain 1 of 2): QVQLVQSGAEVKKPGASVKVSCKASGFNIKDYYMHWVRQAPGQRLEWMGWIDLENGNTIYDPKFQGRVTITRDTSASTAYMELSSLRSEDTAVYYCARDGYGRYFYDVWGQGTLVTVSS
T1 sequence (VL, as listed by the source limits assumed, chain 2 of 2): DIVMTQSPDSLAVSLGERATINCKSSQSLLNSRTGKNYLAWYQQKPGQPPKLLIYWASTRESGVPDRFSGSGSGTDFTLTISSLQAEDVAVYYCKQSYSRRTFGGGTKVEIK
Description: (§1) ForteBio affinity measurements were performed generally as previously described (Estep et al., MAbs. 2013 5(2):270-8). Briefly, ForteBio affinity measurements were performed by loading antibody IgG or Fabs on-line onto AHC sensors. Sensors were equilibrated off-line in assay buffer for 30 minutes and then monitored on-line for 60 seconds for baseline establishment. For avid binding measurement, sensors with loaded antibodies were exposed to IgG or Fab solutions for 3 minutes, afterwards they were transferred to assay buffer for 3 minutes for off-rate measurement. Kinetics data were fit using a 1:1 binding model in the data analysis software provided by ForteBio to obtain equilibrium dissociation constant (KD=koff/kₒₙ) values. In each column, tip-immobilized antibodies are listed first and solution antibodies second.

[2] = target: T2, ADI-26921 IgG; assay: SPR Carterra avidity, yeast anti-ID, *koff limit
T2 construct: anti-CD3 IgG
Description: (§2) Kinetic analysis was conducted at 25° C. in an HBSTE running buffer system (Carterra Cat #3630) using a Carterra LSA (Carterra USA, Salt Lake City, UT). The sample compartment was maintained at 20° C. for the duration of each experiment.
(§3) For antibody capture experiments, a goat anti-human Fc antibody (Jackson ImmunoResearch) was covalently coupled to an HC30M sensor chip surface via standard amine coupling (1:1 EDC:NHS) and then blocked with ethanolamine (1.0 M, pH 8.5). Covalent coupling steps were performed in 25 mM MES buffer (Carterra, Cat #3625) plus 0.05% Tween20. The anti-CD3 antibodies (100 nM in running buffer) were flowed over discrete regions of interest on the chip surface for 5 minutes. […] Dissociation of the anti-idiotype antibodies was monitored for 300s. Several blank buffer samples were injected over the entire chip surface at the start of each non-regenerative kinetic cycle. The preceding blank buffer injection was used for blank surface subtraction. At the end of each non-regenerative kinetic cycle, all surfaces were regenerated via two 30s injections of 10 mM glycine, pH 1.7.
(§4) For data processing and fitting, sensorgrams were double reference subtracted with a baseline drift correction of 4 RU. Sensorgrams were y-aligned and baseline corrected, filtered and cropped to include only the association and dissociation steps. Data was fitted to a 1:1 binding model using Carterra Kinetics Data Analysis software version 1.7.1.3055.

[3] = target: T3, ADI-76359; assay: SPR Carterra avidity, yeast anti-ID, *koff limit
T3 construct: anti-CD3 antibody made in CHO cells, captured by anti-human Fc
T3 sequence (VH, as listed by the source, chain 1 of 2): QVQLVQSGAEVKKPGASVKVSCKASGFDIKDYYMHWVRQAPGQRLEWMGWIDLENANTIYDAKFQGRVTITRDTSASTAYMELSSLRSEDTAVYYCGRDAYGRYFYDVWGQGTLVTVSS
T3 sequence (VL, as listed by the source, chain 2 of 2): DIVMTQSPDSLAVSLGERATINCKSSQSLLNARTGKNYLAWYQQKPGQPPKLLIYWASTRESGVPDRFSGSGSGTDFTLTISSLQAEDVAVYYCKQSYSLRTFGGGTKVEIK
Description: as §2, §3, §4

[4] = target: T4, ADI-74967; assay: SPR Carterra avidity, yeast anti-ID, *koff limit
T4 construct: pH-dependent anti-CD3 antibody made in CHO cells
T4 sequence (VH, as listed by the source, chain 1 of 2): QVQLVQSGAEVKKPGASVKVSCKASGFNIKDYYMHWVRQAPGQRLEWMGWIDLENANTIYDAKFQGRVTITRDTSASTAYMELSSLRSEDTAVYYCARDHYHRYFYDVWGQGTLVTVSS
T4 sequence (VL, as listed by the source, chain 2 of 2): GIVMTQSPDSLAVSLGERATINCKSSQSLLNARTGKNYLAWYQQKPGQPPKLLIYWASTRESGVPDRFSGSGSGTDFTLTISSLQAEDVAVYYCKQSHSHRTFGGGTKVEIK
Description: as §2, §3, §4

[5] = target: T5, ADI-26920 IgG; assay: SPR Carterra avidity, yeast anti-ID, *koff limit
T5 construct: anti-CD3 IgG
Description: as §2, §3, §4

[6] = target: T6, ADI-26915; assay: SPR Carterra avidity, yeast anti-ID
T6 construct: anti-CD3 antibody made in CHO cells, captured by anti-human Fc
T6 sequence (VH, as listed by the source, chain 1 of 2): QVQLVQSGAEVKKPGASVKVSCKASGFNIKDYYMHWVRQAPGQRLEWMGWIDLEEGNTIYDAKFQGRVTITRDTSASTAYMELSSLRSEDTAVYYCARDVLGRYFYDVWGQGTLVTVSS
T6 sequence (VL, as listed by the source, chain 2 of 2): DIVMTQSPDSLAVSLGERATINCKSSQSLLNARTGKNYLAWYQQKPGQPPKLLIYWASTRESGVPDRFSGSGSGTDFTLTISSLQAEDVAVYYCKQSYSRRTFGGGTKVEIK
Description: as §2, §3, §4

[7] = target: T7, ADI-48592; assay: SPR Carterra avidity, yeast anti-ID
T7 construct: pH-dependent anti-CD3 antibody made in CHO cells
Description: as §2, §3, §4

[8] = target: T8, ADI-76360; assay: SPR Carterra avidity, yeast anti-ID
T8 construct: anti-CD3 antibody made in CHO cells, captured by anti-human Fc
Description: as §2, §3, §4

[9] = target: T9, ADI-26912; assay: SPR Carterra avidity, yeast anti-ID
T9 construct: anti-CD3 antibody made in CHO cells, captured by anti-human Fc
Description: as §2, §3, §4

[10] = target: T10, ADI-26943; assay: SPR Carterra avidity, yeast anti-ID
T10 construct: anti-CD3 antibody made in CHO cells, captured by anti-human Fc
Description: as §2, §3, §4

[11] = target: T11, ADI-76358; assay: SPR Carterra avidity, yeast anti-ID
T11 construct: anti-CD3 antibody made in CHO cells, captured by anti-human Fc
Description: as §2, §3, §4

[12] = target: T12, ADI-70330; assay: SPR Carterra avidity, yeast anti-ID
T12 construct: anti-CD3 antibody made in CHO cells, captured by anti-human Fc
Description: as §2, §3, §4

[13] = target: T13, ADI-67450; assay: SPR Carterra avidity, yeast anti-ID
T13 construct: anti-CD3 antibody made in CHO cells, captured by anti-human Fc
T13 sequence (VH, as listed by the source limits assumed, chain 1 of 2): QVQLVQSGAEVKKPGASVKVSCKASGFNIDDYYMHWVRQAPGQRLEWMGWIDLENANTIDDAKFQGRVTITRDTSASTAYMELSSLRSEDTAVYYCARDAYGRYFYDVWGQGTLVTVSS
Description: as §2, §3, §4

[14] = target: T14, ADI-26906 IgG; assay: SPR Carterra avidity, yeast anti-ID
T14 construct: anti-CD3 IgG
T14 sequence (VH, as listed by the source limits assumed, chain 1 of 2): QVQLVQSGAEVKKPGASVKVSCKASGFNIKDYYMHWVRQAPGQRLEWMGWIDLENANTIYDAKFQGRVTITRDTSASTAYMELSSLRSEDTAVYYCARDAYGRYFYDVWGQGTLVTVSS
Description: as §2, §3, §4

[15] = target: T15, ADI-70327; assay: SPR Carterra avidity, yeast anti-ID
T15 construct: anti-CD3 antibody made in CHO cells, captured by anti-human Fc
T15 sequence (VH, as listed by the source limits assumed, chain 1 of 2): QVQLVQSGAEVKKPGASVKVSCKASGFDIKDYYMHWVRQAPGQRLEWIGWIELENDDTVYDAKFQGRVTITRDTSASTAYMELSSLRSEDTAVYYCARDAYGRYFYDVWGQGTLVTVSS
T15 sequence (VL, as listed by the source limits assumed, chain 2 of 2): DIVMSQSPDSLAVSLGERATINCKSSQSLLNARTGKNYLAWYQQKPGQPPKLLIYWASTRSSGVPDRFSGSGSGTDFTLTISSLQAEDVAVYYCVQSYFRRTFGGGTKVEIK
Description: as §2, §3, §4

[16] = target: T16, ADI-74966; assay: SPR Carterra avidity, yeast anti-ID
T16 construct: pH-dependent anti-CD3 antibody made in CHO cells
T16 sequence (VL, as listed by the source, chain 2 of 2): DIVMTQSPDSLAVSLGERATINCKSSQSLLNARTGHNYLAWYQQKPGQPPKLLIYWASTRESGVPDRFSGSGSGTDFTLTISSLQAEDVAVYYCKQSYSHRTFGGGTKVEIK
Description: as §2, §3, §4

[17] = target: T17, ADI-67445; assay: SPR Carterra avidity, yeast anti-ID
T17 construct: anti-CD3 antibody made in CHO cells, captured by anti-human Fc
Description: as §2, §3, §4

[18] = target: T18, ADI-67447; assay: SPR Carterra avidity, yeast anti-ID
T18 construct: anti-CD3 antibody made in CHO cells, captured by anti-human Fc
Description: as §2, §3, §4

[19] = target: T19, ADI-26919; assay: SPR Carterra avidity, yeast anti-ID
T19 construct: anti-CD3 antibody made in CHO cells, captured by anti-human Fc
Description: as §2, §3, §4

[20] = target: T20, ADI-76362; assay: SPR Carterra avidity, yeast anti-ID
T20 construct: anti-CD3 antibody made in CHO cells, captured by anti-human Fc
T20 sequence (VH, as listed by the source, chain 1 of 2): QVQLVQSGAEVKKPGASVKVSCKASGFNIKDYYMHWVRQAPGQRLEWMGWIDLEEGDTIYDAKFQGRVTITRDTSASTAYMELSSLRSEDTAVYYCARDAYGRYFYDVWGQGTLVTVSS
Description: as §2, §3, §4

[21] = target: T21, ADI-26924; assay: SPR Carterra avidity, yeast anti-ID
T21 construct: anti-CD3 antibody made in CHO cells, captured by anti-human Fc
Description: as §2, §3, §4

[22] = target: T22, ADI-76361; assay: SPR Carterra avidity, yeast anti-ID
T22 construct: anti-CD3 antibody made in CHO cells, captured by anti-human Fc
Description: as §2, §3, §4

[23] = target: T23, ADI-50024; assay: SPR Carterra avidity, yeast anti-ID
T23 construct: anti-CD3 antibody made in CHO cells, captured by anti-human Fc
Description: as §2, §3, §4

[24] = target: T24, ADI-48587; assay: SPR Carterra avidity, yeast anti-ID
T24 construct: pH-dependent anti-CD3 antibody made in CHO cells
T24 sequence (VL, as listed by the source, chain 2 of 2): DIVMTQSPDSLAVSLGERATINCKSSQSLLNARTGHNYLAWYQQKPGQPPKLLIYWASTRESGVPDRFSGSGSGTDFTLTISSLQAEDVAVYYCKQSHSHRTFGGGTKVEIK
Description: as §2, §3, §4

[25] = target: T25, ADI-76357; assay: SPR Carterra avidity, yeast anti-ID
T25 construct: anti-CD3 antibody made in CHO cells, captured by anti-human Fc
T25 sequence (VH, as listed by the source, chain 1 of 2): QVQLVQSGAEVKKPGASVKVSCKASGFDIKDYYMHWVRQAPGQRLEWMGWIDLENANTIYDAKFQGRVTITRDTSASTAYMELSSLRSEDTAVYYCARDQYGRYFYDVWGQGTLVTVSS
Description: as §2, §3, §4

[26] = target: T26, ADI-48650; assay: SPR Carterra avidity, yeast anti-ID
T26 construct: pH-dependent anti-CD3 antibody made in CHO cells
T26 sequence (VH, as listed by the source, chain 1 of 2): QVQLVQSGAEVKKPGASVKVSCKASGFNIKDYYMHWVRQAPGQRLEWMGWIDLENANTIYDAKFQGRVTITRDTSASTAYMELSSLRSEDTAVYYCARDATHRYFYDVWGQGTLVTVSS
T26 sequence (VL, as listed by the source, chain 2 of 2): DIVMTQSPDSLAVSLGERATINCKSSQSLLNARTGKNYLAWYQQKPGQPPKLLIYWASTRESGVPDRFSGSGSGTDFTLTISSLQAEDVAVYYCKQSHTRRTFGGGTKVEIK
Description: as §2, §3, §4

[27] = target: T27, ADI-48576; assay: SPR Carterra avidity, yeast anti-ID
T27 construct: pH-dependent anti-CD3 antibody made in CHO cells
Description: as §2, §3, §4

[28] = target: T28, ADI-70326; assay: SPR Carterra avidity, yeast anti-ID
T28 construct: anti-CD3 antibody made in CHO cells, captured by anti-human Fc
T28 sequence (VH, as listed by the source limits assumed, chain 1 of 2): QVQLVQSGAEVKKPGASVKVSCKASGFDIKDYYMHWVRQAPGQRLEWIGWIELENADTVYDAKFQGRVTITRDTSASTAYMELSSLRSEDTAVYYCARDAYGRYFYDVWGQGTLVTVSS
Description: as §2, §3, §4

[29] = target: T29, ADI-74968; assay: SPR Carterra avidity, yeast anti-ID
T29 construct: pH-dependent anti-CD3 antibody made in CHO cells
Description: as §2, §3, §4

[30] = target: T30, ADI-26916 IgG; assay: SPR Carterra avidity, yeast anti-ID
T30 construct: anti-CD3 IgG
T30 sequence (VH, as listed by the source, chain 1 of 2): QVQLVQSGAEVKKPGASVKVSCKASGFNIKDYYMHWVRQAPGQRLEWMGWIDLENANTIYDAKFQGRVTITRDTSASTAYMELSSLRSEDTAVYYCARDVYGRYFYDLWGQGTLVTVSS
Description: as §2, §3, §4

[31] = target: T31, CTL-62223; assay: SPR Carterra avidity, yeast anti-ID
T31 construct: also called mosunetuzumab
Description: as §2, §3, §4

[32] = target: T32, ADI-26909; assay: SPR Carterra avidity, yeast anti-ID
T32 construct: anti-CD3 antibody made in CHO cells, captured by anti-human Fc
T32 sequence (VH, as listed by the source limits assumed, chain 1 of 2): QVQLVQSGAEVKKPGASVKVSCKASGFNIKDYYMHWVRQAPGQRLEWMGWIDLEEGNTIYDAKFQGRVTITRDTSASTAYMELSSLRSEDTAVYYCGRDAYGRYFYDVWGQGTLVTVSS
Description: as §2, §3, §4

[33] = target: T33, ADI-74965; assay: SPR Carterra avidity, yeast anti-ID
T33 construct: pH-dependent anti-CD3 antibody made in CHO cells
Description: as §2, §3, §4

[34] = target: T34, ADI-26913 IgG; assay: SPR Carterra avidity, yeast anti-ID
T34 construct: anti-CD3 IgG
T34 sequence (VH, as listed by the source limits assumed, chain 1 of 2): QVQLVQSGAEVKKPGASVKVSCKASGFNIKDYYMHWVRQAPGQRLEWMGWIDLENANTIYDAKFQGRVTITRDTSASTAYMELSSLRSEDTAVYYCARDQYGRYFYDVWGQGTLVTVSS
Description: as §2, §3, §4

[35] = target: T35, ADI-22523 IgG; assay: BLI; tip anti-ID IgG, solution ADI-22523 IgG
T35 construct: anti-CD3 IgG
Description: as §1

[36] = target: T36, CTL-62228; assay: SPR Carterra, yeast anti-ID
T36 construct: also called glofitamab
Description: as §2, §3, §4

[37] = target: T37, CTL-62227; assay: SPR Carterra, yeast anti-ID
T37 construct: also called odronextamab
Description: as §2, §3, §4

[38] = target: T38, CTL-62240; assay: SPR Carterra, yeast anti-ID
T38 construct: also called ONO-4685
Description: as §2, §3, §4

[39] = target: T19, ADI-26919; assay: SPR Carterra avidity, yeast anti-ID, *koff limit
Description: as §2, §3, §4

[40] = target: T2, ADI-26921 IgG; assay: SPR Carterra avidity, yeast anti-ID
Description: as §2, §3, §4

[41] = target: T3, ADI-76359; assay: SPR Carterra avidity, yeast anti-ID
Description: as §2, §3, §4

[42] = target: T4, ADI-74967; assay: SPR Carterra avidity, yeast anti-ID
Description: as §2, §3, §4

[43] = target: T5, ADI-26920 IgG; assay: SPR Carterra avidity, yeast anti-ID
Description: as §2, §3, §4

Binder	Kd [1] [nM]	binding result [7]	Kd [8] [nM]	binding result [9]	Kd [10] [nM]	Kd [14] [nM]	Kd [16] [nM]	Kd [17] [nM]	Kd [18] [nM]	Kd [20] [nM]	Kd [21] [nM]	Kd [22] [nM]	Kd [23] [nM]	Kd [25] [nM]	binding result [26]	binding result [27]	binding result [28]	Kd [30] [nM]	Kd [31] [nM]	Kd [35] [nM]	further results
B1	14.8	binds	0.082	binds	0.17	0.33	0.21	0.37	0.22	0.22	0.19	0.054	0.39	0.086	binds	binds	binds	0.31	1.8	0.63	Kd [2]: 0.048 nM; Kd [3]: 0.059 nM; Kd [4]: 0.12 nM; Kd [5]: 0.088 nM; Kd [6]: 14 nM; Kd [11]: 0.96 nM; Kd [12]: 0.3 nM; Kd [13]: 0.92 nM; Kd [15]: 0.95 nM; Kd [19]: 0.14 nM; Kd [24]: 0.88 nM; Kd [29]: 0.76 nM; Kd [32]: 0.32 nM; binding result [33]: binds; Kd [34]: 0.3 nM
B2		binds	0.61	binds	0.15	0.16	0.58	0.65	0.56	0.82	0.2	0.15	0.35	0.57	binds	binds	binds	0.6	0.99	84.9	binding result [36]: no binding (tested: up to 200 nM); binding result [37]: no binding (tested: up to 200 nM); binding result [38]: no binding (tested: up to 200 nM); Kd [39]: 0.044 nM; binding result [6]: binds; Kd [40]: 0.36 nM; binding result [11]: binds; binding result [12]: binds; binding result [13]: binds; binding result [15]: binds; Kd [41]: 0.12 nM; Kd [42]: 0.28 nM; binding result [24]: binds; Kd [43]: 0.15 nM; binding result [29]: binds; Kd [32]: 0.9 nM; binding result [33]: binds; Kd [34]: 0.93 nM
B3	12.5																			2.99	
B4	18.9																			2.9	
